Publication PMC7234994, “Structural insights into the inhibition mechanism of human sterol O-acyltransferase 1 by a competitive inhibitor” (Nature Communications, 2020)

Assays:
[1] = molecular target: the molecule itself; test: SEC; fluorescence-detection SEC (FSEC) of N-terminal GFP-tagged hSOAT1 solubilized in detergent micelles; elution compared with dimeric mouse TPC1 (189 kDa)
[2] = molecular target: the molecule itself; test: cryo-EM structure; hSOAT1 66-550 in nanodisc (MSP2X) with inhibitor CI-976; 3.5 Å, C2 symmetry
[3] = molecular target: the molecule itself; test: cryo-EM structure; hSOAT1 full length in detergent micelles with CI-976; one 3D class refined to 12 Å

Protein | stoichiometry N [1] | also measured
N-terminal GFP-tagged N-terminal truncated human SOAT1 (66-550) (domain or fragment, UniProt P35610 66-550, looked up, human sterol O-acyltransferase 1 (SOAT1), residues 66-550 (N-terminal tetramerization domain deleted); also called hSOAT1 dimer; SOAT1-dimer (66-550); source: HEK293F, transfected, solubilized with 1% GDN (supernatant, not purified); not shown: GFP, N-terminal, kept) MKEVGSHFDDFVTNLIEKSASLDNGGCALTTFSVLEGEKNNHRAKDLRAPPEQGKIFIARRSLLDELLEVDHIRTIYHMFIALLILFILSTLVVDYIDEGRLVLEFSLLSYAFGKFPTVVWTWWIMFLSTFSVPYFLFQHWATGYSKSSHPLIRSLFHGFLFMIFQIGVLGFGPTYVVLAYTLPPASRFIIIFEQIRFVMKAHSFVRENVPRVLNSAKEKSSTVPIPTVNQYLYFLFAPTLIYRDSYPRNPTVRWGYVAMKFAQVFGCFFYVYYIFERLCAPLFRNIKQEPFSARVLVLCVFNSILPGVLILFLTFFAFLHCWLNAFAEMLRFGDRMFYKDWWNSTSYSNYYRTWNVVVHDWLYYYAYKDFLWFFSKRFKSAAMLAVFAVSAVVHEYALAVCLSFFYPVLFVLFMFFGMAFNFIVNDSRKKPIWNVLMWTSLFLGNGVLLCFYSQEWYARQHCPLKNPTFLDYVRPRSWTCRYVF | 2 | –
human SOAT1 dimer construct (66-550), purified, tags removed (domain or fragment, UniProt P35610 66-550, looked up, human sterol O-acyltransferase 1 (SOAT1), residues 66-550; residues 66-117 invisible in the map; Reconstituted into MSP2X nanodiscs; also called hSOAT1 dimer; hSOAT1 66-550; source: HEK293F, BacMam infected, purified (strep-tactin, PreScission, superose-6); not shown: His7, N-terminal, cleaved; strep, N-terminal, cleaved; GFP, N-terminal, cleaved) MKEVGSHFDDFVTNLIEKSASLDNGGCALTTFSVLEGEKNNHRAKDLRAPPEQGKIFIARRSLLDELLEVDHIRTIYHMFIALLILFILSTLVVDYIDEGRLVLEFSLLSYAFGKFPTVVWTWWIMFLSTFSVPYFLFQHWATGYSKSSHPLIRSLFHGFLFMIFQIGVLGFGPTYVVLAYTLPPASRFIIIFEQIRFVMKAHSFVRENVPRVLNSAKEKSSTVPIPTVNQYLYFLFAPTLIYRDSYPRNPTVRWGYVAMKFAQVFGCFFYVYYIFERLCAPLFRNIKQEPFSARVLVLCVFNSILPGVLILFLTFFAFLHCWLNAFAEMLRFGDRMFYKDWWNSTSYSNYYRTWNVVVHDWLYYYAYKDFLWFFSKRFKSAAMLAVFAVSAVVHEYALAVCLSFFYPVLFVLFMFFGMAFNFIVNDSRKKPIWNVLMWTSLFLGNGVLLCFYSQEWYARQHCPLKNPTFLDYVRPRSWTCRYVF | – | stoichiometry N [2]: 2
N-terminal GFP-tagged full-length human SOAT1 (1-550) (enzyme, UniProt P35610 1-550, looked up, human sterol O-acyltransferase 1 (SOAT1), full-length, residues 1-550; BacMam vector with N-terminal His7-strep-GFP tags; detected by GFP fluorescence in FSEC; also called hSOAT1; sterol O-acyltransferase 1; source: solubilized in detergent micelles; not shown: GFP, N-terminal, kept) MVGEEKMSLRNRLSKSRENPEEDEDQRNPAKESLETPSNGRIDIKQLIAKKIKLTAEAEELKPFFMKEVGSHFDDFVTNLIEKSASLDNGGCALTTFSVLEGEKNNHRAKDLRAPPEQGKIFIARRSLLDELLEVDHIRTIYHMFIALLILFILSTLVVDYIDEGRLVLEFSLLSYAFGKFPTVVWTWWIMFLSTFSVPYFLFQHWATGYSKSSHPLIRSLFHGFLFMIFQIGVLGFGPTYVVLAYTLPPASRFIIIFEQIRFVMKAHSFVRENVPRVLNSAKEKSSTVPIPTVNQYLYFLFAPTLIYRDSYPRNPTVRWGYVAMKFAQVFGCFFYVYYIFERLCAPLFRNIKQEPFSARVLVLCVFNSILPGVLILFLTFFAFLHCWLNAFAEMLRFGDRMFYKDWWNSTSYSNYYRTWNVVVHDWLYYYAYKDFLWFFSKRFKSAAMLAVFAVSAVVHEYALAVCLSFFYPVLFVLFMFFGMAFNFIVNDSRKKPIWNVLMWTSLFLGNGVLLCFYSQEWYARQHCPLKNPTFLDYVRPRSWTCRYVF | 4 | –
human SOAT1 full-length (1-550), purified, tags removed (enzyme, UniProt P35610 1-550, looked up, human sterol O-acyltransferase 1 (SOAT1), full-length, residues 1-550; Studied in digitonin/GDN micelles and in MSP2N2 nanodiscs with soybean polar lipids; also called hSOAT1; hSOAT1 tetramer; source: HEK293F, BacMam infected, purified (strep-tactin, PreScission, superose-6); not shown: His7, N-terminal, cleaved; strep, N-terminal, cleaved; GFP, N-terminal, cleaved) MVGEEKMSLRNRLSKSRENPEEDEDQRNPAKESLETPSNGRIDIKQLIAKKIKLTAEAEELKPFFMKEVGSHFDDFVTNLIEKSASLDNGGCALTTFSVLEGEKNNHRAKDLRAPPEQGKIFIARRSLLDELLEVDHIRTIYHMFIALLILFILSTLVVDYIDEGRLVLEFSLLSYAFGKFPTVVWTWWIMFLSTFSVPYFLFQHWATGYSKSSHPLIRSLFHGFLFMIFQIGVLGFGPTYVVLAYTLPPASRFIIIFEQIRFVMKAHSFVRENVPRVLNSAKEKSSTVPIPTVNQYLYFLFAPTLIYRDSYPRNPTVRWGYVAMKFAQVFGCFFYVYYIFERLCAPLFRNIKQEPFSARVLVLCVFNSILPGVLILFLTFFAFLHCWLNAFAEMLRFGDRMFYKDWWNSTSYSNYYRTWNVVVHDWLYYYAYKDFLWFFSKRFKSAAMLAVFAVSAVVHEYALAVCLSFFYPVLFVLFMFFGMAFNFIVNDSRKKPIWNVLMWTSLFLGNGVLLCFYSQEWYARQHCPLKNPTFLDYVRPRSWTCRYVF | – | stoichiometry N [3]: 4
